First the molecules themselves.
T1: human BCMA with a His tag (ACROBiosystems, Catalog No.: BCA-H522y) (human)
T1 construct: Bought His-tagged recombinant protein; also called huBCMA-His; Recombinant human BCMA
T1 chain: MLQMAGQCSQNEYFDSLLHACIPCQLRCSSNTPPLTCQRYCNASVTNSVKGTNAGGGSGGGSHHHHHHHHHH

T2: BCMA on cells (293T cells transfected with BCMA; H929, MM.1S and U266 cell lines expressing BCMA) (human, UniProt Q02223 1-184)
T2 construct: H929, MM.1S and U266 carry the native protein; also called B-cell Maturation Antigen; TNFRSF17
T2 sequence: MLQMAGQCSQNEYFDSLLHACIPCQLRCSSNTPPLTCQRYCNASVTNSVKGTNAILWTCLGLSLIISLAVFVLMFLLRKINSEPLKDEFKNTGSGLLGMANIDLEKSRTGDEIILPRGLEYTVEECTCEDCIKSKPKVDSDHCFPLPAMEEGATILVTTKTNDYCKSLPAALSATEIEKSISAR

T3: mouse BCMA with a His tag (ACROBiosystems, Catalog No.: BCA-M52H3) (mouse)
T3 construct: Bought His-tagged recombinant protein
T3 chain: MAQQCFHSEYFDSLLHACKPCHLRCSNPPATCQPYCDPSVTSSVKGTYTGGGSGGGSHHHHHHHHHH

B1: SCT-Aa05(m/m) (antibody, V domains shown)
VH: EVKLLQSGGGLVQPGGSLKLSCAASGIDFSRYWMSWVRRAPGKGLEWIGEINPDSSTINYAPSLKDKFIISRDNAKNTLYLQMSKVRSEDTGLYYCASLYYDYEREYGMDYWGQGTSVTVSS
VL: DIVMTQSQKFMSTSVGDRVSVTCKASQNVGTNVAWYQQKPGQSPKALIYSASYRFSGVPDRFTGSGSGTDFTLTISNVQSEDLAEYFCQQYNSYPYTFGGGTKLEIK
notes: Full IgG format: mouse IgG1 heavy chain constant region, mouse kappa light chain constant region
B2: SCT-Aa03(m/m) (antibody, V domains shown)
VH: EVKLLQSGGGLVQPGGSLKLSCAASGIDFSRYWMSWVRRAPGKGLEWIGEINPDSSTINYAPSLKDKFIISRDNAKNTLYLQMSKVRSEDTALYYCASFYYDYDHAMDYWGQGTSVTVSS
VL: B1 VL with V19F, Y96F, G100S
notes: as for B1
B3: SCT-Aa02(h/h) (antibody, V domains shown)
VH: B1 VH with Y60S, K65E, G92A, E106D, G108A, T116A
VL: B1 VL with N92H, Y96F
notes: Full IgG format, chimeric: human IgG1 heavy chain constant region, human kappa light chain constant region
B4: SCT-Aa05(h/h) (antibody, V domains shown)
VH: B1 VH
VL: B1 VL
notes: as for B3
B5: SCT-Aa04(h/h) (antibody, V domains shown)
VH: B1 VH with G92A, L99F, E104D, E106G, Y107A, G108A
VL: B1 VL with F55Y
notes: as for B3
B6: SCT-Aa01(m/m) (antibody, V domains shown)
VH: DVQLQESGPGLVKPSQSLSLTCSVTGYSITSGYYWNWIRQFPGNKLEWMGYIRYDGSNNYNPSLKNRISITRDTSKNQFFLKLNSVTTEDTATYYCAPYDYDYAMDFWGQGTSVTVSS
VL: DIQMTQSPASLSASVGETVTITCRASGNIHNYLAWYQQKQGKSPQLLVYNAKTLAHGVPSRFSGSGSGTQYSLKITSLQPEDFGTYYCQHFWSTPFTFGSGTKLEIK
notes: as for B1
B7: SCT-Aa13(m/m) (antibody, V domains shown)
VH: QVQLQQSDAELVKPGASVKISCKVSGYTFTDYTIHWMKQRPEQGLEWIGYIYPRDGSTKYNEKFKGKATLTADKSSSTAYMQLNSLTSEDSAVYFCARWDYEGFDYWGQGTTLTVSS
VL: DIVMTQSPATLSVTPGDRVSLSCRASQSISDYLHWYQQKSHESPRLLIKYASQSISGIPSRFSGSGSGSDFTLSINSVEPEDVGVYYCQNGHSFPPTFGSGTKLEIK
notes: as for B1
B8: SCT-Aa09(m/m) (antibody, V domains shown)
VH: B7 VH with Y32H, I51F, G56D, S57N, K74R
VL: B7 VL with S30R
notes: as for B1
B9: SCT-Aa15(h/h) (antibody, V domains shown)
VH: B7 VH with A16P, Y27S, Y32H, I34V, I51V, K59R
VL: B7 VL with S28N, E105K
notes: as for B3
B10: SCT-Aa14(m/m) (antibody, V domains shown)
VH: B7 VH with G26S, Y32H, Y52F
VL: B7 VL with S28N
notes: as for B1

These results are taken from patent publication US20210332145A1 (SINGLE CELL TECHNOLOGY, published 2021).

In general, Kd refers to the equilibrium constant for the complex coming apart. Read a low Kd as higher affinity. The term koff denotes the first-order rate constant of dissociation. A high value points to fast dissociation. As usually defined, the kon is a measure of how fast the partners come together. A lower kon goes with slow association. The EC50 is the concentration giving half of the maximal effect. The low end stands for higher potency in that assay, the high end for lower potency in that assay.

Changes are numbered by the printed parent chain.

One test addresses T1, human BCMA with a His tag …. Nature of the test: SPR, Biacore T200. Here is the method: The binding affinity of select anti-BCMA was measured on a surface plasmon resonance (SPR) instrument, Biacore T200™, against human BCMA by a method known in the art.
In experiments performed essentially as described above, a subset of anti-human BCMA antibodies of the present disclosure bind human BCMA with a His tag (ACROBiosystems, Beijing, China, Catalog No.: BCA-H522y, SEQ ID NO:2) with affinity shown in Table 6.
For orientation: Surface plasmon resonance follows binding to a sensor surface in real time, without labels.
B1 returned a Kd of 4.91 nM, a koff of 0.00034 s⁻¹ and a kon of 69200 M⁻¹ s⁻¹.
In turn, B2 displayed a Kd of 11.7 nM, an off-rate (koff) of 0.00263 s⁻¹ and a kon of 224000 M⁻¹ s⁻¹.
The molecule B3 returned a Kd of 1.22 nM, a koff of 0.000374 s⁻¹ and a kon of 306000 M⁻¹ s⁻¹.
For B4, in that order: 9.93 nM, 0.000995 s⁻¹ and 100000 M⁻¹ s⁻¹.
For B5, in that order: 32.6 nM, 0.034 s⁻¹ and 1.04e+06 M⁻¹ s⁻¹.
On to B6, for which binding was characterised by a dissociation constant (Kd) of 68.6 nM, the koff was 0.0175 s⁻¹ and the kon amounted to 255000 M⁻¹ s⁻¹.
B7 displayed a Kd of 43.8 nM, a koff of 0.0358 s⁻¹ and a kon of 817000 M⁻¹ s⁻¹.
On to B8, for which the affinity, expressed as Kd, was 76.6 nM; the koff stood at 0.127 s⁻¹; the kon was determined as 1.66e+06 M⁻¹ s⁻¹.
On to B9, for which the Kd was 1.19 nM, the koff was found to be 0.0062 s⁻¹ and the kon was found to be 5.21e+06 M⁻¹ s⁻¹.
In the case of B10, the Kd amounted to 20.4 nM, the koff is 0.0376 s⁻¹ and the kon amounted to 1.85e+06 M⁻¹ s⁻¹.

In a further test the target is T2, BCMA on cells (293T cells transfected …). Nature of the test: flow cytometry, H929 cells. Here is the method: A cell line expressing BCMA, H929, was used to assess binding by anti-BCMA antibodies on the native protein on the cell surface by flow cytometry according to the known art. A subset of anti-human BCMA antibodies were assayed for binding to H929 and the fraction of cells bound the labeled antibody above background defined by control is shown in Table 8.
A general note: A flow cytometer gives signals particle by particle.
With B1, the “Positive (%)” value was 99.9%.
As to B2, the “Positive (%)” value is 99.9%.
In the case of B3, the “Positive (%)” value is 99.2%.
As for B4, the “Positive (%)” value was 96.5%.
Still for that read-out and setting: for B5 the value was 96.5%; for B6, 99.8%.
Same read-out and setting: the same measure for B7: 99.9%; for B8: 18.4%; for B9: 34.8%.
On the same count and under the same terms, the same measure for B10: 75.1%.

The next test shares this target. Nature of the test: flow cytometry, H929 cells. This is another data set of the same source.
In the case of B1, the Mean fluorescent intensity worked out at 2020.
B2: the Mean fluorescent intensity turned out to be 3920.
Molecule B3 registered a Mean fluorescent intensity of 1280.
On to B4, for which the Mean fluorescent intensity came out at 758.
With B5, the Mean fluorescent intensity came out at 623.
Regarding B6, the Mean fluorescent intensity was 2090.
As to B7, the Mean fluorescent intensity is 2560.
With B8, the Mean fluorescent intensity was determined as 102.
As to B9, the Mean fluorescent intensity turned out to be 141.
As to B10, the Mean fluorescent intensity was 475.

The next test deals with T4, cyno BCMA with a His tag (ACROBiosystems, Catalog No.: BCA-052H7) (cyno).
T4 construct: Bought His-tagged recombinant protein
T4 sequence (chain, as listed by the source limits assumed): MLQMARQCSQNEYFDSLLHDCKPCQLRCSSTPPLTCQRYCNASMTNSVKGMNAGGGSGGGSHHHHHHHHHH
The experiment in a line: ELISA, plate-coated cyno BCMA-His. Here is the method:
(§1) The recombinantly expressed antibodies were used to assess binding activity to BCMA of different species origins by conventional ELISA according to the known art. Recombinant human BCMA, cyno BCMA, and mouse BCMA were coated onto ELISA plates to detect binding at serially diluted concentrations of the anti-BCMA antibody preparations.
(§2) The ability for antibodies of the present disclosure to bind human BCMA was measured with an ELISA assay. For the BCMA binding assay, a 96-well plate (Nunc) is coated with human BCMA with a His tag (ACROBiosystems, Catalog No.: AC108P1-180611F2-Bulk, SEQ ID NO:2) at 0.2 μg/well overnight at 4° C. Wells are blocked for 2 h with blocking buffer (PBS containing 3% bovine serum albumin). Wells are washed three times with PBS containing 0.1% Tween-20. Anti-human BCMA antibodies of the present disclosure or control IgG (100 μL) is then added and incubated at room temperature for 1 h. After washing, the plate is incubated with 100 μL of goat anti-mouse IgG Fcγ Fragment Specific-HRP conjugate (Jackson ImmunoResearch) at room temperature for 1 h. The plates are washed and then incubated with 100 μL of 3,3′,5,5′-tetra-methylbenzidine. The absorbance at 450 nm is read on a microplate reader. The half maximal effective concentration (EC50) is calculated using GraphPad Prism 6 software.
In experiments performed essentially as described above, anti-human BCMA antibodies of the present disclosure bind cyno BCMA with a His tag (ACROBiosystems, Beijing, China, Catalog No.: BCA-052H7, SEQ ID NO:110) with an EC50 values shown in Table 4.
Turning to B3, the midpoint of the response, the EC50, lay at 43.3 ng/mL.
Same read-out and setting: the same measure for B6: 5.7 ng/mL; for B7: 174 ng/mL; for B8: 5570 ng/mL.

For a further test, the target named is T1, human BCMA with a His tag …. Nature of the test: ELISA, plate-coated human BCMA-His. On the procedure:
as §1, §2
In experiments performed essentially as described above, anti-human BCMA antibodies of the present disclosure bind human BCMA with a His tag (ACROBiosystems, Beijing, China, Catalog No.: BCA-H522y, SEQ ID NO:2) with an EC50 values shown in Table 3.
As for B1, the midpoint of the response, the EC50, lay at 2.12 ng/mL.
With B2, a half-maximal response (EC50) required 1.71 ng/mL.
Same read-out and setting: for B3 the value was 2.85 ng/mL; for B4, 2.35 ng/mL; for B5, 2.48 ng/mL.
Same read-out and setting: the same measure for B6: 2.92 ng/mL; for B7: 2.64 ng/mL; for B8: 1.96 ng/mL.
For the molecule B9, the EC50 came to 3.71 ng/mL.
On to B10, for which a half-maximal response (EC50) required 2.52 ng/mL.

Another test concerns the target T3, mouse BCMA with a His tag …. Nature of the test: ELISA, plate-coated mouse BCMA-His. Here is the method:
as §1, §2
In experiments performed essentially as described above, anti-human BCMA antibodies of the present disclosure bind mouse BCMA with a His tag (ACROBiosystems, Beijing, China, Catalog No.: BCA-M52H3, SEQ ID NO:109) with an EC50 values shown in Table 5.
On the technique in general: ELISA stands for enzyme-linked immunosorbent assay.
B1 returned an EC50 of 52.2 ng/mL.
In turn, B2 registered an EC50 of 79.1 ng/mL.
Molecule B4 yielded an EC50 of 29.4 ng/mL.
Still for that read-out and setting: for B5 the value was 270 ng/mL; for B7, 529 ng/mL; for B9, 226 ng/mL.
In turn, B10 showed an EC50 of 2340 ng/mL.

In a further test the target is T2, BCMA on cells (293T cells transfected …). The experiment in a line: flow cytometry, 293T cells transfected with BCMA, above parental 293T background.
For the molecule B1, the “Positive (%)” value came to 94.3%.
Take B2: the “Positive (%)” value turned out to be 91.6%.
With B3, the “Positive (%)” value was found to be 81.9%.
For the molecule B4, the “Positive (%)” value amounted to 76.3%.
Regarding B5, the “Positive (%)” value was 72%.
As for B6, the “Positive (%)” value came out at 48.2%.
In the case of B7, the “Positive (%)” value stood at 84.4%.
As for B8, the “Positive (%)” value turned out to be 16.9%.
On the same count and under the same terms, the same measure for B9: 32%; for B10: 52.2%.
